Data on 51 molecules can be found in patent US20250011363A1, “OPTIMIZED SHORTENED PEPTIDE THAT BINDS TO ACETYLCHOLINE RECEPTOR, AND USE THEREOF” (SKINMED CO., LTD., priority 2021, published 2025).

The assay has as its target acetylcholine receptor. Description: SPR, AchR immobilised on CM5 chip, peptide 10 uM. A general note: SPR reads the build-up and loss of mass on a sensor chip optically.

For RKASIK [6mer-1-975], the Binding affinity (RU) is 22 RU.

KKPTFR [6mer-1-997]: the Binding affinity (RU) was determined as 35 RU.

With RRTEFK [6mer-1-987], the Binding affinity (RU) is 34 RU.

RRPPWK [6mer-1-996] returned a Binding affinity (RU) of 39 RU.

Take KRATVR [6mer-1-989]: the Binding affinity (RU) came out at 27 RU.

On to RKMSHR [6mer-1-1000], for which the Binding affinity (RU) came out at 28 RU.

KKAEEK [6mer-1-986]: the Binding affinity (RU) is 22 RU.

KKNCDK [6mer-1-962] registered a Binding affinity (RU) of 42 RU.

On to KRIHMK [6mer-1-1002], for which the Binding affinity (RU) was found to be 29 RU.

In turn, KRPHKK [6mer-1-983] registered a Binding affinity (RU) of 38 RU.

In turn, RREEDK [6mer-1-963] registered a Binding affinity (RU) of 29 RU.

Turning to RKIEMK [6mer-1-971], the Binding affinity (RU) amounted to 32 RU.

RRDHVK [6mer-1-973] returned a Binding affinity (RU) of 25 RU.

As to KRNPVK [6mer-1-998], the Binding affinity (RU) worked out at 41 RU.

Take KRCPDR [6mer-1-982]: the Binding affinity (RU) was found to be 35 RU.

Consider RKPPDR [6mer-1-1005], for which the Binding affinity (RU) turned out to be 26 RU.

In turn, RRNSWK [6mer-1-966] yielded a Binding affinity (RU) of 22 RU.

Take RKDHWR [6mer-1-969]: the Binding affinity (RU) is 33 RU.

RKICAK [6mer-1-980] gave a Binding affinity (RU) of 33 RU.

On to RKHSHR [6mer-1-1004], for which the Binding affinity (RU) was determined as 41 RU.

On to RRYWEK [6mer-1-979], for which the Binding affinity (RU) was 42 RU.

Consider RRKSHK [6mer-1-978], for which the Binding affinity (RU) came to 43 RU.

For the molecule RKATNR [6mer-1-999], the Binding affinity (RU) is 24 RU.

For the molecule RRPCFR [6mer-1-977], the Binding affinity (RU) is 43 RU.

As to KRYPDR [6mer-1-988], the Binding affinity (RU) was found to be 24 RU.

Molecule RRCTAK [6mer-1-992] registered a Binding affinity (RU) of 28 RU.

For KKDKIK [6mer-1-1006], the Binding affinity (RU) came out at 25 RU.

RREDFR [6mer-1-968] showed a Binding affinity (RU) of 39 RU.

As for RRHTHK [6mer-1-972], the Binding affinity (RU) is 43 RU.

Consider RKPAHK [6mer-1-974], for which the Binding affinity (RU) came out at 27 RU.

For the molecule KKESDK [6mer-1-984], the Binding affinity (RU) came out at 33 RU.

As for KRIWDK [6mer-1-965], the Binding affinity (RU) came to 36 RU.

With RKMSKK [6mer-1-1009], the Binding affinity (RU) stood at 29 RU.

Consider RRCCAR [6mer-1-970], for which the Binding affinity (RU) was 38 RU.

KRCHHR [6mer-1-995] gave a Binding affinity (RU) of 33 RU.

Consider KRAHDK [6mer-1-993], for which the Binding affinity (RU) came to 26 RU.

The molecule KRKSER [6mer-1-985] displayed a Binding affinity (RU) of 22 RU.

In the case of RKAHDK [6mer-1-991], the Binding affinity (RU) came to 25 RU.

For the molecule RKFKNK [6mer-1-964], the Binding affinity (RU) was 42 RU.

RRFTER [6mer-1-990] displayed a Binding affinity (RU) of 40 RU.

Regarding RKYCHR [6mer-1-1003], the Binding affinity (RU) was found to be 24 RU.

The molecule KKIWFR [6mer-1-959] showed a Binding affinity (RU) of 36 RU.

KKHEFR [6mer-1-994] yielded a Binding affinity (RU) of 37 RU.

For the molecule RRTWAR [6mer-1-961], the Binding affinity (RU) was 122 RU.

Consider KKCPFR [6mer-1-960], for which the Binding affinity (RU) came out at 34 RU.

In turn, RKPWAR [6mer-1-1008] registered a Binding affinity (RU) of 21 RU.

On to RRTEDR [6mer-1-967], for which the Binding affinity (RU) worked out at 24 RU.

RKEMIK [6mer-1-976] showed a Binding affinity (RU) of 40 RU.

RKDDKK [6mer-1-981] displayed a Binding affinity (RU) of 27 RU.

In turn, RKPTDR [6mer-1-1007] displayed a Binding affinity (RU) of 39 RU.

Molecule KKPKHK [6mer-1-1010] had a Binding affinity (RU) of 33 RU.
